The target in this assay is T1, constitutively expressed nonmitochondrial Hsp70 homolog Hsc70 (human, UniProt P11142 2-646).
T1 construct: Endogenous; used as the control in the co-immunoprecipitation
Put plainly: co-immunoprecipitation with hTid-1-specific mAbs, immunoblot for Hsc70. The method, then: FIG. 2C. Endogenous hTid-1L and hTid-1S coimmunoprecipitate with mtHsp70. Immunoprecipitation experiments were performed from U20S cells by using mAbs specific for either hTid-1, mtHsp70, or Hsc70. Immune complexes were analyzed by SDS/PAGE and Western blot with hTid-1-, mtHsp70-, or Hsc70-specific mAbs.
Because hTid-1 proteins have extremely well conserved J domains, we suspected that they may be interacting with the mitochondrial Hsp70 homolog, mtHsp70 (GRP75), which is also localized to the mitochondrial matrix. We performed coimmunoprecipitation-immunoblot experiments by using mAbs specific for hTid-1, mtHsp70, or the constitutively expressed nonmitochondrial Hsp70 homolog Hsc70 as a control. hTid-1-specific mAbs immunoprecipitate endogenous hTid-1L and hTid-1S in complex with mtHsp70 from human U2OS cells. (FIG. 2C).

T1 sequence (P11142 2-646 limits assumed): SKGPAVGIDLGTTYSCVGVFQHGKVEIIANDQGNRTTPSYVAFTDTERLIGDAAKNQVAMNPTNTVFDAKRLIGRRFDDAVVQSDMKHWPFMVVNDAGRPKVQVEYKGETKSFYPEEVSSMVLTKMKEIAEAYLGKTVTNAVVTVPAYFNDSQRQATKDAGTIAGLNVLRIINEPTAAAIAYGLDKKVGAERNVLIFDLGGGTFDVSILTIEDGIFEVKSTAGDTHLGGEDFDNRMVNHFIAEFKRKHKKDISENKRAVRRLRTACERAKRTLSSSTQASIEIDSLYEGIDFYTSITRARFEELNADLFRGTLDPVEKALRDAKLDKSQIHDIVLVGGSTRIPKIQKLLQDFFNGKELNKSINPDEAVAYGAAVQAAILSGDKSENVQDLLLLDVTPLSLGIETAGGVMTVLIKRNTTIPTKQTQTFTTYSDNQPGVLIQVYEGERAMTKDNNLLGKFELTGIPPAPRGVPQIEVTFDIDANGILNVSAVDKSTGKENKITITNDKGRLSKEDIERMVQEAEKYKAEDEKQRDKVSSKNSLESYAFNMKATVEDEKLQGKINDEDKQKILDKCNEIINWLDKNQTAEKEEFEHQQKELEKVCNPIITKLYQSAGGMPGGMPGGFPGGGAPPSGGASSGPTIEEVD

B1: hTid-1S (other)
chain: VSLTGTKHNPFICTASFHTSAPLAKEDYYQILGVPRNASQKEIKKAYYQLAKKYHPDTNKDDPKAKEKFSQLAEAYEVLSDEVKRKQYDAYGSAGFDPGASGSQHSYWKGGPTVDPEELFRKIFGEFSSSSFGDFQTVFDQPQEYFMELTFNQAAKGVNKEFTVNIMDTCERCNGKGNEPGTKVQHCHYCGGSGMETINTGPFVMRSTCRRCGGRGSIIISPCVVCRGAGQAKQKKRVMIPVPAGVEDGQTVRMPVGKREIFITFRVQKSPVFRRDGADIHSDLFISIAQALLGGTARAQGLYETINVTIPPGTQTDQKIRMGGKGIPRINSYGYGDHYIHIKIRVPKRLTSRQQSLILSYAEDETDVEGTVNGVTLTSSGKRSTGN
notes: Endogenous protein from human cell lysates; also called short form of human Tid1; 40 kDa TID1 splice variant
With B1, the binding result is “no binding”.

B2: hTid-1L (other)
chain: VSLTGTKHNPFICTASFHTSAPLAKEDYYQILGVPRNASQKEIKKAYYQLAKKYHPDTNKDDPKAKEKFSQLAEAYEVLSDEVKRKQYDAYGSAGFDPGASGSQHSYWKGGPTVDPEELFRKIFGEFSSSSFGDFQTVFDQPQEYFMELTFNQAAKGVNKEFTVNIMDTCERCNGKGNEPGTKVQHCHYCGGSGMETINTGPFVMRSTCRRCGGRGSIIISPCVVCRGAGQAKQKKRVMIPVPAGVEDGQTVRMPVGKREIFITFRVQKSPVFRRDGADIHSDLFISIAQALLGGTARAQGLYETINVTIPPGTQTDQKIRMGGKGIPRINSYGYGDHYIHIKIRVPKRLTSRQQSLILSYAEDETDVEGTVNGVTLTSSGGSTMDSSAGSKARREAGEDEEGFLSKLKKMFTS
notes: Endogenous protein from human cell lysates; also called long form of human Tid1; 43 kDa TID1 splice variant
As for B2, the binding result is recorded as “no binding”.

Source of the values: patent US20020086844A1 (Harvard, published 2002).
